± gives the uncertainty stated by the source.
B1: Protein maelstrom homolog, residues 3 to 71; numbered along this chain, Q96JY0 (parent)
chain: NRKASRNAYYFFVQEKIPELRRRGLPVARVADAIPYCSSDWALLREEEKEKYAEMAREWRAAQGKDPGP

Variants of: B1
Assay: abundance fitness (aPCA) (normalised: wild type 0, dead -1); higher = more abundant; growth selection in yeast, the domain comes from the species named
Conditions: Homo sapiens

Variant | abundance fitness
A56P | -0.651 ± 0.1
A56C | 0.027 ± 0.084
A56G | -0.302 ± 0.045
A56Q | -0.226 ± 0.078
A56W | -0.236 ± 0.05
A56F | 0.124 ± 0.13
A56R | -0.523 ± 0.045
A56S | -0.02 ± 0.036
A56N | -0.16 ± 0.13
A56Y | 0.208 ± 0.14
E46T | -0.188 ± 0.071
E46M | -0.134 ± 0.097
E46N | -0.09 ± 0.13
E46A | -0.23 ± 0.068
E46V | -0.38 ± 0.077
E46C | -0.046 ± 0.1
E46G | -0.031 ± 0.055
E46D | -0.266 ± 0.13
E46I | -0.315 ± 0.24
E46Y | -0.339 ± 0.14
E46H | -0.101 ± 0.18
E46K | 0.012 ± 0.11
E46R | -0.14 ± 0.045
E46F | -0.215 ± 0.12

Variant | abundance fitness
E46P | 0.066 ± 0.1
E46L | -0.139 ± 0.05
S38F | -0.223 ± 0.2
S38R | 0.171 ± 0.17
S38M | -0.154 ± 0.2
S38G | 0.193 ± 0.17
S38Q | 0.155 ± 0.24
S38V | 0.073 ± 0.28
S38C | -0.337 ± 0.22
S38L | -0.132 ± 0.2
S38Y | -0.06 ± 0.21
A33E | -0.725 ± 0.2
A33S | -0.588 ± 0.088
A33Q | -1.05 ± 0.17
A33C | -0.599 ± 0.15
A33L | -0.47 ± 0.068
A33V | -0.541 ± 0.078
A33T | -0.619 ± 0.11
A33W | -0.665 ± 0.17
A33Y | -0.713 ± 0.18
A33R | -0.83 ± 0.083
A33M | -0.707 ± 0.1
A33K | -0.714 ± 0.18
A33F | -0.808 ± 0.22

Variant | abundance fitness
A33D | -0.62 ± 0.28
A33H | -0.279 ± 0.28
A33G | -0.098 ± 0.06
A33P | -0.654 ± 0.14
C37V | -0.137 ± 0.057
C37G | -0.557 ± 0.043
C37K | -0.719 ± 0.13
C37F | -0.55 ± 0.13
C37Q | -0.636 ± 0.16
C37E | -0.636 ± 0.13
C37L | -0.244 ± 0.054
C37T | -0.434 ± 0.11
C37I | -0.229 ± 0.15
C37M | -0.291 ± 0.073
C37A | -0.19 ± 0.075
C37S | -0.561 ± 0.07
C37R | -0.731 ± 0.072
C37Y | -0.741 ± 0.13
R57W | -0.378 ± 0.094
R57Q | -0.104 ± 0.1
R57G | -0.159 ± 0.068
R57M | -0.01 ± 0.11
R57K | 0.001 ± 0.13
R57Y | -0.236 ± 0.23

Variant | abundance fitness
R57H | 0.206 ± 0.14
R57T | -0.054 ± 0.098
R57A | 0.05 ± 0.078
R57F | -0.332 ± 0.23
R57L | 0.003 ± 0.073
R57I | -0.398 ± 0.42
R57V | -0.093 ± 0.099
R57S | -0.034 ± 0.09
R57D | -0.072 ± 0.21
R57N | -0.135 ± 0.17
R57E | 0.021 ± 0.097
R57C | -0.089 ± 0.15
I34F | 0.091 ± 0.13
I34Y | -0.064 ± 0.26
I34K | 0.406 ± 0.13
I34D | 0.113 ± 0.2
I34T | -0.19 ± 0.11
I34C | -0.203 ± 0.14
I34W | -0.04 ± 0.062
I34G | -0.198 ± 0.04
I34N | -0.06 ± 0.15
I34M | 0.069 ± 0.12
I34S | -0.229 ± 0.078
I34R | -0.148 ± 0.039

Variant | abundance fitness
I34H | -0.307 ± 0.25
I34E | -0.113 ± 0.094
I34Q | -0.25 ± 0.092
I34A | -0.133 ± 0.065
I34L | -0.17 ± 0.065
I34V | -0.137 ± 0.06
Q63C | -0.255 ± 0.13
Q63H | -0.31 ± 0.13
Q63L | -0.321 ± 0.051
Q63A | -0.018 ± 0.066
Q63K | -0.019 ± 0.071
Q63Y | -0.242 ± 0.16
Q63N | 0.023 ± 0.083
Q63D | -0.121 ± 0.13
Q63R | 0.054 ± 0.042
Q63S | 0.091 ± 0.057
Q63V | -0.089 ± 0.059
Q63G | 0.126 ± 0.043
Q63W | -0.37 ± 0.091
Q63E | -0.046 ± 0.062
Q63P | -0.08 ± 0.067
Q63F | -0.202 ± 0.16
A53M | -0.322 ± 0.1
A53P | -0.589 ± 0.13

Variant | abundance fitness
A53V | -0.006 ± 0.062
A53T | -0.15 ± 0.1
A53N | -0.144 ± 0.21
A53H | 0.037 ± 0.18
A53I | -0.263 ± 0.22
A53W | -0.097 ± 0.057
A53K | -0.226 ± 0.11
A53Q | -0.194 ± 0.11
A53C | 0.043 ± 0.1
A53E | 0.13 ± 0.075
A53R | 0.035 ± 0.045
A53S | 0.082 ± 0.087
A53D | -0.082 ± 0.24
A53G | -0.106 ± 0.052
A53Y | 0.265 ± 0.44
E58S | -0.24 ± 0.097
E58T | -0.392 ± 0.11
E58F | -0.319 ± 0.19
E58H | 0.246 ± 0.18
E58M | -0.594 ± 0.17
E58I | -0.279 ± 0.14
E58Y | -0.972 ± 0.39
E58G | -0.082 ± 0.063
E58L | -0.165 ± 0.071

Variant | abundance fitness
E58V | -0.256 ± 0.1
E58D | -0.09 ± 0.26
E58W | -0.523 ± 0.12
E58K | -0.014 ± 0.1
E58R | -0.189 ± 0.057
E58Q | -0.17 ± 0.1
E58P | -0.521 ± 0.16
E58C | -0.245 ± 0.13
E58A | -0.086 ± 0.071
G64K | 0.048 ± 0.071
G64Q | 0.165 ± 0.073
G64V | 0.196 ± 0.046
G64M | -0.008 ± 0.068
G64S | 0.035 ± 0.049
G64C | 0.082 ± 0.082
G64Y | 0.181 ± 0.12
G64N | 0.214 ± 0.095
G64L | -0.018 ± 0.054
G64R | 0.116 ± 0.047
G64E | 0.088 ± 0.06
G64A | 0.146 ± 0.034
G64D | 0.207 ± 0.091
G64P | -0.022 ± 0.077

Source: the Human Domainome abundance scans (Beltran et al. 2025)
